Laboratory results: the supplement of paper PMC12636428

Tested on: Saccharomyces cerevisiae
Assay: transcriptional activation domain activity (GFP:mCherry ratio, weighted mean of sorted bins, harmonized to initial dataset scale) (arbitrary fluorescence ratio units); higher = stronger transcriptional activation
Conditions: beta-estradiol 1 µM; induction time 4 h
Outline: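 Values are activation activity, found as the read-weighted mean of bin median fluorescence, averaged across barcodes and then mapped linearly onto the initial dataset scale. Barcoded protein tiles fused to an estradiol-inducible synthetic transcription factor were integrated at the URA3 locus of GFP-reporter yeast diploids. Cells were induced for 4 hours at 30 °C with 1 uM beta-estradiol in SC, sorted into 8 bins by GFP:mCherry ratio, and barcode-sequenced, with tiles under 50 reads discarded.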

MVFSFLLDILAGILYYYLVLGSHILASCFDYRWFYFFFFFFVLFFSLLFSVFL
transcriptional activation domain activity: 61900

MYVEIFFLSLVWRIIIVLSLTSKGVFFNITYLFFRFLFSLVLCIFFFLHFFSL
transcriptional activation domain activity: 43100

GSTQAVDLIAYGGYKFVGVITTLISGFEFLHLGRSIYTMVFLYSFLSNAFFLL
transcriptional activation domain activity: 63600

FRNGPWWCLAHYIMRAMAVFLLAMSPQVLQVHTDLVLPVKKLIRWLQWMRQDD
transcriptional activation domain activity: 64200

KDDRDDRDRRGGDDRREDREERRGGEDRGEDRGGEGRRDSRQEGGANREPSPS
transcriptional activation domain activity: 23700

VDASTIARLSSPELGAREQLRQEEERRRKIERRARRRERRERERSSALLHLTG
transcriptional activation domain activity: 33400

MYRWISSIDAICVHLWGYMKNLACLLLTHIFYCLASMCLLLVDTLITGVGNIP
transcriptional activation domain activity: 61100

KGKGKGKEGKGKGRREGEGGRGTEGREMGEKEREEEREEEREGKEGRREGGKE
transcriptional activation domain activity: 24100

QRNDARLIPGIKYLQLVLGRVRCCREIIAILARNGHRLPKGMLPTLVRLWLLM
transcriptional activation domain activity: 35800

KVISLLYSNRESSYLEDTCPTENDYSDLLKGYINEIEKTLPPKAIIEQYLSHF
transcriptional activation domain activity: 51100

ICHYKGSLIGKHFKSLSQVMPFIIYDLVPSTVLNAWTIMGKLIVLIWHTKILN
transcriptional activation domain activity: 38600

ATNLFFTAAIFYFIFVVFGVILVLLYKALCELLIRSKKIGSESHLFHFIHNGW
transcriptional activation domain activity: 44900

MITYIILLLFFLLYYSIILFTSFSFSFFITFILHTITTLPVFILSCCSTFFFF
transcriptional activation domain activity: 66600

EPERKQSRRRQSRGRGRKGVADSDTESVPRSDVSASGGRRNRQRQRQKGGKQQ
transcriptional activation domain activity: 48900

EPPPPPPEPEPQPPPKAEPPPEPEPEPVPKAEAPPPPPREEPPPPKKAPPPPK
transcriptional activation domain activity: 44000

MNILNLEMWYYLLECLNLRFVLVFFLLSLFFSSRFTGGLVGVECFSFFVWITM
transcriptional activation domain activity: 86000

IFSLILALIGMIILATIDVVHKIGVTYFACFLMAAGSYVPTVLVHSWHNNNNL
transcriptional activation domain activity: 50300

KSTARDTSAEVSSTKKRARSKAKKGDSDVEEDSDRGRSKTAKKSRKSTGAKSS
transcriptional activation domain activity: 12800

MRRVTQQTGKGKIPSMYSLVVIGNGDGLVGYGEAKDDEPAAAREKATAKALRS
transcriptional activation domain activity: 46400

DESPDADATKREKKKKKQKKRKVLQKEEEEEAEAARDKRERKKRKKSKSDIRR
transcriptional activation domain activity: 39200

PSRTSCATPSPTSSTSAVPSARSSTGPRSRSRSRTASTSSTRASAAPSCSCAR
transcriptional activation domain activity: 10500

AYAVMVVIQSLFLCLFGMAFQFSFFLNANFVVVYSIFVLYGWAMICFALFLST
transcriptional activation domain activity: 46800

KLWAKRRAIYGNVFGFPGGVAWAMLVARICQLYPNAVSATIVGKFFNILTKWN
transcriptional activation domain activity: 33200

PFGICGSFLGLFFCVMGLIAHMPSIWLVRGGNHSYTSLPGNSWLCVIFCLFSC
transcriptional activation domain activity: 49200

SASSRESSASASHSASKSESSAAASRTSSAPATQSTGAAVANRAGVVGAVAGG
transcriptional activation domain activity: 57700

RSRAEGGSSPGRGGSEDGAGAGKPGKERRDKSRGARAKQCGCKAVNQDKSCEC
transcriptional activation domain activity: 21900

MVVIVLQIGVSLYKLLVLLLWYVEWILYLFLLVEDRLLYQNMLLFEAPTLVYT
transcriptional activation domain activity: 63300

HHFVWERCLPDQMFVFAEDDIAHILNVTISSLELPMKTRQEIWVPSNVLFLCA
transcriptional activation domain activity: 54200

EDCDFLGDDTCSIVNHINCQHGINFDIQFANPDSFLPGSISKEKHHLLHCPNP
transcriptional activation domain activity: 77900

ETVQKYDGYRPDILSIWNNEFYPIGKYNDDMTGFKFQMRIKEMQEFLDMEKYS
transcriptional activation domain activity: 68500

AAATTADAKPASSAADKASSSVAAASAGQATASTDSGTAKAEKKKKGKAAAVA
transcriptional activation domain activity: 8920

EAPEPAADAPPPRRVRMSKPKVKTGCRECKTRRVKCDEARPACTRCTRGRREC
transcriptional activation domain activity: 36800

MILYTWFFLRSPFFIFGILWVHGLVDRFLFCHLLVVYFCHLVNFFIHLKYANE
transcriptional activation domain activity: 55700

KAEAEAEAQPIAAAKTPRTRKAAAKPKAAAPSPTPAIPKTQAPTASAPAAPLP
transcriptional activation domain activity: 18300

LSTLFYIFCRYALVANFLYSLSIIKGSHIINCDIGYMICGVLSIFGHIGIIAV
transcriptional activation domain activity: 49800

AYPTAAAVAPSTPKGKQRDVADELADLSVSKSSGSASKAKAKGSSPAAAKAAA
transcriptional activation domain activity: 14900

GGGEAQKPRPAAERKKQEANGHAHHDHSQGNHHGHRHKHAKDAKKAEDGGARK
transcriptional activation domain activity: 32500

RLRLSCYIMMCVVTSYSTWAIVSGYFTCVPVAKFWDPTIKGHCLNFQALWFFN
transcriptional activation domain activity: 61900

LYVIIFPILYFSLLLFYFFSSCGGVGWWAVGWHGVLCFFVLLGWVGLGGCCLC
transcriptional activation domain activity: 35900

RNMRALRKTWQSSASEDGGGGGEGDEHPHLEDLEYTSREWGAFAQGLKLLAVS
transcriptional activation domain activity: 70800

MADEHAAHRRKRARLACLACNARRVKCNVAECRPCHNCAAANVPCETRESRRG
transcriptional activation domain activity: 38300

RTKASGSSGEAAAASGGASSSKAEDARAEGGEEAAKPRRSSRLSAKSAGESAG
transcriptional activation domain activity: 15000

APSRRTGRTSTAGSASESRPTSSCTSPRRPPTPPARPPASPRTRRTSPRRPSA
transcriptional activation domain activity: 31000

ILHELTIVVACHRWNHGLFFFFQMMQIPIIMYSDKIPWFRDQHALRNWCFWLA
transcriptional activation domain activity: 58000

LSIFSWMSWIAPESLNLSTITGFNNGLGINPWPTWDWNTLLFDAADPLMIPFF
transcriptional activation domain activity: 39700

RDDGRRRNEKPQRSKNKGTSSTGSDKKKTTEKKSSSSRKTSGSQVDKKLSSKK
transcriptional activation domain activity: 37900

EDEQPAAPADGRKKTVTKGADKAGLGGTPVRKNATTAGRGRKPATAKKGASQP
transcriptional activation domain activity: 32300

MLLASGCWIQSTYGLFYKCLYFFYLAIFFDHFTFSLNNFLITQCRYPIISLFI
transcriptional activation domain activity: 78000

AKVWKFHFHGSYTKISVHVINMIYCTMRGHEIPSLHIFKCDRLLTLSVLLGYI
transcriptional activation domain activity: 58200

QTDPEKKRVWENKILETLERRPSKKCDYILLRSEQLVGTALIVLVKSELTSVI
transcriptional activation domain activity: 54900

VVPYYCLFVFFPFYSCVLVRLAGNCHSCLIIALFFLILISGRSFFFFFFFFFF
transcriptional activation domain activity: 14200

MSLKEDDFGKDNSRNIESYTGRIFDVYIQKDSYSQSALDDMFPEAVVSTAACV
transcriptional activation domain activity: 32700

MYCACGQDGKSPFVMRCVLCFGFVFLFLFLLFFSSLLISLLFIFSHCSMLLPI
transcriptional activation domain activity: 23000

ASEKKEASQRPPPAVEKKTVPKPSSKPENRPGPSKPVVPKADSKKEAPKPAPS
transcriptional activation domain activity: 9920

EGKTRESKQKQGRERIGKGKGSREKGERREEEEGKGGKRRAGRKEGEWRSRGS
transcriptional activation domain activity: 32400

NWYWLATTMYFLYGESVVYYLKHIVLVDKVLLPLATHHRFISFILYVFGFVFF
transcriptional activation domain activity: 46100

SQKKHCELCKTAFRFTKLYSPDMPKHLPFHIFVHHMTRYLLRNFLVWLRAALV
transcriptional activation domain activity: 43000

MVIWRDTLLITLHGLCGGILLRFPSAVNLFHCFIDINSPIGITILTLFVLHLC
transcriptional activation domain activity: 70200

RTSDRYLETLDALFVDKFVYAHAWTTFMSTCLKTWRRDCCSSAMLLLLHILCF
transcriptional activation domain activity: 54900

RASTTSPTCSGTSTSARGRGAACSRGASTSGRCTRSSRRTRGSRSGTATSTTR
transcriptional activation domain activity: 33600

MGVLFCVWSKFMGLHYSLVFFFVYPFSHCFSLLFPFFFFTIMSWYIVFYHTCF
transcriptional activation domain activity: 70300

DINSFTNQQQQAQDNPSFLPLDIEQSSYDLSEDAMSYPIISTQSNRDCTQYDN
transcriptional activation domain activity: 68700

PLGTVGLAKLVFVKMFGGAKRITITLISAALLMMAVRFFSIAHPFLLADNRHY
transcriptional activation domain activity: 62400

MVQCAVAECAEEGQSQCGRCKQRFYCSAECQQKDWAAHKKACKKPTATAGPAP
transcriptional activation domain activity: 39500

RRVWLKYILYFVYGIVDWVYSTSLLKTMVWLRLPLYITVGKHVLVGLVGSMWV
transcriptional activation domain activity: 50000

MSDDLGASPTQRPLRKSHRKSRKGCLDCRRRRVKCGEERPSCLVCVRRNVRCE
transcriptional activation domain activity: 49200

DPYDWSTYSNLIDEERIFVPEVQSSDHINDKFLTVANVTGEGSEGLIMQWLSC
transcriptional activation domain activity: 133000

MLTWFFSYRLELLPFFYIIFSPIVFLLFSIFLLVLLRSFVCRLICFCLFLQSV
transcriptional activation domain activity: 56500

KIVKHVILAATWRTSSVQDSFYLLATWWIICWQFYFVSVYIFPLILIALLHYM
transcriptional activation domain activity: 60700

IEGPTLSDWFRIFERAFSLRELHWVYNYEDSYAMKPDRVIVLLNLWQLVAPNV
transcriptional activation domain activity: 42800

FLVRLFVLPVTLCMLYRCSVSLDLSRLNGSARNEWFNYWNKALLLGMTLFSMR
transcriptional activation domain activity: 62500

LKIKLLVVWFWLLDAIHICMLCSSNWRDLIVHYGDRRTLDYIPPTTALAILFT
transcriptional activation domain activity: 79600

PSEEKTVQKPDTAVAPPEDKAEPTPDATKPKEKKSRKKSKKAAEEKADGASTS
transcriptional activation domain activity: 25300

TGGFGSTNTGGGGLFGGGNTSNTGGGFGSTAGGFGSTNTTSAFGGAAKPAFGA
transcriptional activation domain activity: 19300

NGGCDYVFSMYVLGAGLWLFIFFLPPIIFSIVCLCYLALIWAVSWVLLWCLVF
transcriptional activation domain activity: 49600

NDGNESNEDYLGNEKFYLNEILPDEESKLRWKRVFENSENDHDNEKNFLTDWE
transcriptional activation domain activity: 39900

FLNNAPDEDPNLNNQWSICDDFSEGRQVNDAFVGGSNIPHTLKGLQKSLRFMN
transcriptional activation domain activity: 50800

MNDKVVSCETRRRRKAREGREKRGKGEERGEKREGRRERGEREREKRKERGRE
transcriptional activation domain activity: 25300

HQLGLVMLGMRCDLMRWMVCMDGIEYAGDIVIYCPALLLQLQCIVHTYGWAAR
transcriptional activation domain activity: 41700

GKVPRRTERRKLWDDVKALRKELIDILLFSPLSLADIHFRYRKREGGVVNYYL
transcriptional activation domain activity: 21800

MDGEPANPAVSAPTTRRRRRRPALVCEQCRVRKIKCDRGSPCSKCARGRRSHL
transcriptional activation domain activity: 42000

MCVVFFPVLLLWRLLFRSFSFLPVCIVSPVTRFFFLSFFPSQSIVSNSFILPA
transcriptional activation domain activity: 29800

LLSVCVGKNCTVPSPLNSFDRSFYPIGCTNLSNDIPGYSFLNDAMSEIHTFGD
transcriptional activation domain activity: 82000
